# Experimental data reported in patent EP4613276A2 (Actym Therapeutics, Inc., dated 2025).
# B1: anti-murine CTLA-4 scFv (derived from the 9D9 clone) (scFv)
# scFv: DIVMTQTTLSLPVSLGDQASISCRSSQSIVHSNGNTYLEWYLQKPGQSPKLLIYKVSNRFSGVPDRFSGSGSGTDFTLKISRVEAEDLGVYYCFQGSHVPYTFGGGTKLEIKGGGGSGGGGSGGGGSEAKLQESGPVLVKPGASVKMSCKASGYTFTDYYMNWVKQSHGKSLEWIGVINPYNGDTSYNQKFKGKATLTVDKSSSTAYMELNSLTSEDSAVYYCARYYGSWFAYWGQGTLVTVSS
# notes: Tested as HEK293T supernatant; also called anti-muCTLA-4 scFv
# B2: anti-murine CTLA-4 scFv-Fc (derived from the 9D9 clone, mouse IgG2a Fc) (Fc fusion)
# chain: DIVMTQTTLSLPVSLGDQASISCRSSQSIVHSNGNTYLEWYLQKPGQSPKLLIYKVSNRFSGVPDRFSGSGSGTDFTLKISRVEAEDLGVYYCFQGSHVPYTFGGGTKLEIKGGGGSGGGGSGGGGSEAKLQESGPVLVKPGASVKMSCKASGYTFTDYYMNWVKQSHGKSLEWIGVINPYNGDTSYNQKFKGKATLTVDKSSSTAYMELNSLTSEDSAVYYCARYYGSWFAYWGQGTLVTVSSEPRGPTIKPCPPCKCPAPNLLGGPSVFIFPPKIKDVLMISLSPIVTCVVVDVSEDDPDVQISWFVNNVEVHTAQTQTHREDYNSTLRVVSALPIQHQDWMSGKEFKCKVNNKDLPAPIERTISKPKGSVRAPQVYVLPPPEEEMTKKQVTLTCMVTDFMPEDIYVEWTNNGKTELNYKNTEPVLDSDGSYFMYSKLRVEKKNWVERNSYSCSVVHEGLHNHHTTKSFSRTPGK
# notes: Tested as HEK293T supernatant; also called anti-muCTLA-4 scFv-Fc
# Legend:
# [1] = target: CD3 on Jurkat-Lucia™ NFAT cells (Homo sapiens (Human)) (UniProt P07766); assay: cell-based or functional assay
# CD3 on Jurkat-Lucia™ NFAT cells (Homo sapiens (Human)), sequence (P07766 23-207 limits assumed, form in doubt, chain 1 of 3): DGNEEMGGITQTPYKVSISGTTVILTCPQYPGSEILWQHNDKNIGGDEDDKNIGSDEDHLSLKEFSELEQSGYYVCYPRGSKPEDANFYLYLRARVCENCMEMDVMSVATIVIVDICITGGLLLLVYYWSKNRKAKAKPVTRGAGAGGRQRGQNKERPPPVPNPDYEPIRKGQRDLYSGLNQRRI
# CD3 on Jurkat-Lucia™ NFAT cells (Homo sapiens (Human)), sequence (delta, as listed by the source limits assumed, form in doubt, chain 2 of 3): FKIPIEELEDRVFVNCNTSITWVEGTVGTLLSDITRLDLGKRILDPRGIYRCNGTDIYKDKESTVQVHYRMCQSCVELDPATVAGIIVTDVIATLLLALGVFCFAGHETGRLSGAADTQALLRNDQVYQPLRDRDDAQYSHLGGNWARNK
# CD3 on Jurkat-Lucia™ NFAT cells (Homo sapiens (Human)), sequence (gamma, as listed by the source limits assumed, form in doubt, chain 3 of 3): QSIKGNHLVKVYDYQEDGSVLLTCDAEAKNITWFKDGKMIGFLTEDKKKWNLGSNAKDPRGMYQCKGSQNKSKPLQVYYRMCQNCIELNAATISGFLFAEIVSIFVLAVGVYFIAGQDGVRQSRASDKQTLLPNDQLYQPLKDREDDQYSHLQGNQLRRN
# [2] = target: CD19 on Raji cells (UniProt P15391); assay: flow cytometry on Raji cells, BiTE detected with anti-FLAG-APC (anti-FLAG-APC only: 1439)
# CD19 on Raji cells, sequence (P15391 20-556 limits assumed): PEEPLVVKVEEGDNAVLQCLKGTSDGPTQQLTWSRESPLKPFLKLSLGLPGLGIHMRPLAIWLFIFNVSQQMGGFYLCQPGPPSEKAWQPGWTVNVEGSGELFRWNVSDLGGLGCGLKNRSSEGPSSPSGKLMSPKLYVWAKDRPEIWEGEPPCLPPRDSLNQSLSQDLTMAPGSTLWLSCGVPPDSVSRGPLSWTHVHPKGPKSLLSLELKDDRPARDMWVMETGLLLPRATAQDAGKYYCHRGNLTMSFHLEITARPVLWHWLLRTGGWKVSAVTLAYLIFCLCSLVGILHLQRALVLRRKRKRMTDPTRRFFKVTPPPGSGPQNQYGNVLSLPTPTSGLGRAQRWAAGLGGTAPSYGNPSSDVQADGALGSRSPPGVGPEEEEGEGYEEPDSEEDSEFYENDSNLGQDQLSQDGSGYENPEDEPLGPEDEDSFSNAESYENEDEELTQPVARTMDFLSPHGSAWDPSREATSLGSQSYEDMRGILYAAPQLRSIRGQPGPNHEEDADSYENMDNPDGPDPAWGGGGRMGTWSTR
# [3] = target: CD3 on Jurkat-Lucia™ NFAT cells (Homo sapiens (Human)) (UniProt P07766); assay: flow cytometry on Jurkat-Lucia NFAT cells, BiTE detected with anti-FLAG-APC (anti-FLAG-APC only: 1519)
# [4] = target: CD19 on Raji cells (UniProt P15391); assay: flow cytometry on Raji cells, concentrated supernatant, BiTE detected with anti-FLAG-APC (anti-FLAG-APC only: 1439)
# [5] = target: CD3 on Jurkat-Lucia™ NFAT cells (Homo sapiens (Human)) (UniProt P07766); assay: flow cytometry on Jurkat-Lucia NFAT cells, concentrated supernatant, BiTE detected with anti-FLAG-APC (anti-FLAG-APC only: 1519)
# [6] = target: recombinant murine CTLA-4-human IgG1 Fc chimera (R&D Systems) (mouse; human) (UniProt P09793); assay: competitive ELISA: HEK293T supernatant mixed with 10 ng/ml murine CTLA-4-human IgG1 Fc, on coated mouse CD80 (competitor); anti-human IgG1-HRP detection
# [7] = target: recombinant murine CTLA-4-human IgG1 Fc chimera (R&D Systems) (mouse; human) (UniProt P09793); assay: competitive ELISA: HEK293T supernatant mixed with 10 ng/ml murine CTLA-4-human IgG1 Fc, on coated mouse CD86 (competitor); anti-human IgG1-HRP detection
# [8] = target: mouse TGF-β1 (R&D Systems) (mouse) (UniProt P04202); assay: direct ELISA with mouse TGF-β1 on HEK293T supernatant (media control 0.041 ± 0.002)
# mouse TGF-β1 (R&D Systems) (mouse), sequence (P04202 279-390 limits assumed): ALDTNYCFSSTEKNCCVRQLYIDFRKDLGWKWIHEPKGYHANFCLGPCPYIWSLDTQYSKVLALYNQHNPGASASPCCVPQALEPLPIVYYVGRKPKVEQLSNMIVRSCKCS
# [9] = target: mouse TGF-β1 (R&D Systems) (mouse) (UniProt P04202); assay: direct ELISA with mouse TGF-β1 on concentrated HEK293T supernatant (media control 0.041 ± 0.002)
# [10] = target: T1, recombinant murine CTLA-4-human IgG1 Fc chimera (R&D Systems) (mouse; human, UniProt P09793 36-162; P01857 100-330 = IgG part, limits assumed); assay: direct ELISA of transfected HEK293T supernatant on mouse CTLA-4-Fc; the grade is printed as the payload's expression level
# T1 construct: Bought reagent; also called mouse CTLA-4-Fc
molecule,measurement,setting,value
"CD3xCD19 bispecific T-cell engager (BiTE®), containing a FLAG tag and a His tag (bispecific antibody)","Luminescence (NFAT reporter), 1 Raji: 1 Jurkat, 6 hour time point, CD3xCD19 BiTE®",[1],2060 Luminescence
same,"Luminescence (NFAT reporter), 1 Raji: 1 Jurkat, 6 hour time point, concentrated CD3xCD19 BiTE®",[1],4340 Luminescence
same,"Luminescence (NFAT reporter), 1 Raji: 1 Jurkat, 24 hour time point, CD3xCD19 BiTE®",[1],6020 Luminescence
same,"Luminescence (NFAT reporter), 1 Raji: 1 Jurkat, 24 hour time point, concentrated CD3xCD19 BiTE®",[1],18600 Luminescence
same,"Luminescence (NFAT reporter), 2 Raji: 1 Jurkat, 6 hour time point, CD3xCD19 BiTE®",[1],3440 Luminescence
same,"Luminescence (NFAT reporter), 2 Raji: 1 Jurkat, 6 hour time point, concentrated CD3xCD19 BiTE®",[1],12100 Luminescence
same,"Luminescence (NFAT reporter), 2 Raji: 1 Jurkat, 24 hour time point, CD3xCD19 BiTE®",[1],11300 Luminescence
same,"Luminescence (NFAT reporter), 2 Raji: 1 Jurkat, 24 hour time point, concentrated CD3xCD19 BiTE®",[1],47200 Luminescence
same,Mean Fluorescence Intensity (MFI) of APC+ Cells,[2],7410 MFI
same,Mean Fluorescence Intensity (MFI) of APC+ Cells,[3],4580 MFI
same,Mean Fluorescence Intensity (MFI) of APC+ Cells,[4],16000 MFI
same,Mean Fluorescence Intensity (MFI) of APC+ Cells,[5],14100 MFI
anti-CTLA-4 scFv (ipilimumab scFv antibody fragment),% CD80 Blockade Activity,[6],7%
same,% CD86 Blockade Activity,[7],32.5%
Soluble mouse TGFβ receptor II-Fc (Fc fusion),Absorbance at 450 nm (absorbance at 450 nm),[8],1.51
same,Absorbance at 450 nm (absorbance at 450 nm),[9],1.52
B1,binding result,[10],binds
B2,binding result,[10],binds
